The values that follow are results of earlier work, collected in PMC6557524.

pKd: −log10 of the molar value.

In the data set the target is CCR2 (UniProt P41597).
UniProt P41597, sequence (P41597 whole entry): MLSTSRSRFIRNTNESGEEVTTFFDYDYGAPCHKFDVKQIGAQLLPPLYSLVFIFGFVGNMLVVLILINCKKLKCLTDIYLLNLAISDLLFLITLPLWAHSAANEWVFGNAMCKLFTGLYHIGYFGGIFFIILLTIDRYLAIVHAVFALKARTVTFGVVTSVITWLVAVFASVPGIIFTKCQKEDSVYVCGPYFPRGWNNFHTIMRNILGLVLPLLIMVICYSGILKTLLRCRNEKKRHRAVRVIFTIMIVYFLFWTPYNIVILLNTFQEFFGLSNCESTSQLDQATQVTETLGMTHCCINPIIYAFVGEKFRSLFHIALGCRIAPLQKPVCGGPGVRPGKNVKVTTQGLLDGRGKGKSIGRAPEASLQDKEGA

As a reminder, the pKd is the negative decadic logarithm of the Kd, by convention in mol/L. Consider CCL2 (from UniProt P13500), for which the pKd was 8.68.
